Test results from article PMC9482650, “Quantitative fragmentomics allow affinity mapping of interactomes” (Nature Communications, 2022).

T1: ARHGAP21, Q5T5U3
T1 sequence (Q5T5U3 45-169, limits assumed, looked up): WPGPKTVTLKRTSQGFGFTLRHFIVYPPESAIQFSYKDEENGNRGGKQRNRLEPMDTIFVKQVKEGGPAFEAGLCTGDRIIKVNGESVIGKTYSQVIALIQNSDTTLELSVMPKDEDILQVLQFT

T2: DFNB31_2, Q9P202
T2 sequence (Q9P202 274-371, limits assumed, looked up): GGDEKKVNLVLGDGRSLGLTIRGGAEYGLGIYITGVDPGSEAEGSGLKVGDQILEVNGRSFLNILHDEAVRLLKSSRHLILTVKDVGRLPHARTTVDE

T3: DFNB31_3, Q9P202
T3 sequence (Q9P202 811-907, limits assumed, looked up): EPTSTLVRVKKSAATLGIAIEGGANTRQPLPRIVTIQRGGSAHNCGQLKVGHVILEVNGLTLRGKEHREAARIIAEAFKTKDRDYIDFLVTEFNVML

T4: DLG3_2, Q92796
T4 sequence (Q92796 221-321, limits assumed, looked up): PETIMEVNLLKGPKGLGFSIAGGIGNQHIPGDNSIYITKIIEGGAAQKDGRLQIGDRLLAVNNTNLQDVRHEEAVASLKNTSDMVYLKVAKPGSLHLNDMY

T5: GRIP1_4, Q9Y3R0
T5 sequence (Q9Y3R0 467-571, limits assumed, looked up): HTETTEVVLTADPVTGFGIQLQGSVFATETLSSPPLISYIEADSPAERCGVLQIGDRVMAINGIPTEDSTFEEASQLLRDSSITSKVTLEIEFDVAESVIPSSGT

T6: MPDZ_10, O75970
T6 sequence (O75970 1624-1722, limits assumed, looked up): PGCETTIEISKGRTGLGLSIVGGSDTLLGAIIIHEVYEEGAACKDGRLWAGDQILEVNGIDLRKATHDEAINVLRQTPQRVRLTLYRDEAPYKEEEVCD

T7: MPDZ_12, O75970
T7 sequence (O75970 1857-1958, limits assumed, looked up): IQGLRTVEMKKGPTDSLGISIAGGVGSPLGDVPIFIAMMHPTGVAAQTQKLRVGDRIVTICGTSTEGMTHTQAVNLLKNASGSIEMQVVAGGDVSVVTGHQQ

T8: MPDZ_5, O75970
T8 sequence (O75970 695-796, limits assumed, looked up): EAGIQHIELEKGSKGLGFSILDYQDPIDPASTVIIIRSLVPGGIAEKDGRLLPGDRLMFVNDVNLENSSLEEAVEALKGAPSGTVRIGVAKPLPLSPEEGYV

T9: MPP7, Q5T2T1
T9 sequence (Q5T2T1 134-230, limits assumed, looked up): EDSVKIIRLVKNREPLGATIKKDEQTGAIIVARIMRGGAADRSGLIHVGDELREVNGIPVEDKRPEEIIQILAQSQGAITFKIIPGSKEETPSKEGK

T10: PDZD2_2, O15018
T10 sequence (O15018 329-429, limits assumed, looked up): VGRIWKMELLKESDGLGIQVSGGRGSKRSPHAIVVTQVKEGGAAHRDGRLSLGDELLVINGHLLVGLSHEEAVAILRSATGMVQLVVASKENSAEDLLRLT

T11: PDZRN3_1, Q9UPQ7
T11 sequence (Q9UPQ7 244-349, limits assumed, looked up): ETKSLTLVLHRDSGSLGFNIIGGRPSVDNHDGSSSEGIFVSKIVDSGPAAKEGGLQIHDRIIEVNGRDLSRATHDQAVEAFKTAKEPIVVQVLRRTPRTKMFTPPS

T12: SNTA1, Q13424
T12 sequence (Q13424 82-180, limits assumed, looked up): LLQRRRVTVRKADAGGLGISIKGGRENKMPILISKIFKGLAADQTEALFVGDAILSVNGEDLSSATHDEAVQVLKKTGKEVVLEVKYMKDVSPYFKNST

T13: TX1BP3, O14907
T13 sequence (O14907 10-122, limits assumed, looked up): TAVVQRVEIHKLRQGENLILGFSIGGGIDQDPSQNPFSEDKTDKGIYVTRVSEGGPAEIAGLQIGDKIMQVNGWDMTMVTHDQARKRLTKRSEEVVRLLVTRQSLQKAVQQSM

B1: NCF1, P14598 (peptide)
chain: STKRKLASAV
B2: MARCHF3, Q86UD3 (peptide)
chain: VKRNSKETVV

target: T1, ARHGAP21, Q5T5U3; assay: holdup assay; parameters: key: below the threshold = too weak to quantify, mostly under pKd 3.1 to 4; settings: plain residues with an end cap or a label only (N-terminal biotin on a linker: ado-ado)

pKd | Binder
below the threshold | B1
below the threshold | B2

target: T2, DFNB31_2, Q9P202; assay: holdup assay; parameters: key: below the threshold = too weak to quantify, mostly under pKd 3.1 to 4; settings: plain residues with an end cap or a label only (N-terminal biotin on a linker: ado-ado)

pKd | Binder
below the threshold | B1
below the threshold | B2

target: T3, DFNB31_3, Q9P202; assay: holdup assay; parameters: key: below the threshold = too weak to quantify, mostly under pKd 3.1 to 4; settings: plain residues with an end cap or a label only (N-terminal biotin on a linker: ado-ado)

pKd | Binder
3.85 | B1
3.92 | B2

target: T4, DLG3_2, Q92796; assay: holdup assay; parameters: key: below the threshold = too weak to quantify, mostly under pKd 3.1 to 4; settings: plain residues with an end cap or a label only (N-terminal biotin on a linker: ado-ado)

pKd | Binder
4.45 | B1
5.52 | B2

target: FRMPD3, Q5JV73; assay: holdup assay; parameters: key: below the threshold = too weak to quantify, mostly under pKd 3.1 to 4; settings: plain residues with an end cap or a label only (N-terminal biotin on a linker: ado-ado)
Sequence (Q5JV73 12-100): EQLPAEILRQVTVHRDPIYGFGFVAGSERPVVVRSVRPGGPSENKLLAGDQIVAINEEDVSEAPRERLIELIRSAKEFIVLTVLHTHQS

pKd | Binder
below the threshold | B1
below the threshold | B2

target: T5, GRIP1_4, Q9Y3R0; assay: holdup assay; parameters: key: below the threshold = too weak to quantify, mostly under pKd 3.1 to 4; settings: plain residues with an end cap or a label only (N-terminal biotin on a linker: ado-ado)

pKd | Binder
below the threshold | B1
below the threshold | B2

target: GRIP2_6, Q9C0E4; assay: holdup assay; parameters: key: below the threshold = too weak to quantify, mostly under pKd 3.1 to 4; settings: plain residues with an end cap or a label only (N-terminal biotin on a linker: ado-ado)
Sequence (Q9C0E4 648-740): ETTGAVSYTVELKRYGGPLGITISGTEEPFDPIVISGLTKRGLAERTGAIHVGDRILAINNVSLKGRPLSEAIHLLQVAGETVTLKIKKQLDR

pKd | Binder
below the threshold | B1
below the threshold | B2

target: HTRA1, Q92743; assay: holdup assay; parameters: key: below the threshold = too weak to quantify, mostly under pKd 3.1 to 4; settings: plain residues with an end cap or a label only (N-terminal biotin on a linker: ado-ado)
Sequence (Q92743 360-477): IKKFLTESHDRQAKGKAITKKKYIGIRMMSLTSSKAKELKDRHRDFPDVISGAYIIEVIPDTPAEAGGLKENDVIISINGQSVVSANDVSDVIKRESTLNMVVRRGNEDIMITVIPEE

pKd | Binder
below the threshold | B1
4.35 | B2

target: IL16_1, Q14005; assay: holdup assay; parameters: key: below the threshold = too weak to quantify, mostly under pKd 3.1 to 4; settings: plain residues with an end cap or a label only (N-terminal biotin on a linker: ado-ado)
Sequence (Q14005 210-306): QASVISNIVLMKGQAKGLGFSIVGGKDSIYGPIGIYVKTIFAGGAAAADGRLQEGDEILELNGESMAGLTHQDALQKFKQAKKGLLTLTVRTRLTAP

pKd | Binder
3.52 | B1
3.94 | B2

target: Inadl_3, Q8NI35; assay: holdup assay; parameters: key: below the threshold = too weak to quantify, mostly under pKd 3.1 to 4; settings: plain residues with an end cap or a label only (N-terminal biotin on a linker: ado-ado)
Sequence (Q8NI35 359-469): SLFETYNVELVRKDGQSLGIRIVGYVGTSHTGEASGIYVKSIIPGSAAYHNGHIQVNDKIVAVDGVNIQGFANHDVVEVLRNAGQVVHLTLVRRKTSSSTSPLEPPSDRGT

pKd | Binder
below the threshold | B1
3.49 | B2

target: Inadl_4, Q8NI35; assay: holdup assay; parameters: key: below the threshold = too weak to quantify, mostly under pKd 3.1 to 4; settings: plain residues with an end cap or a label only (N-terminal biotin on a linker: ado-ado)
Sequence (Q8NI35 547-651): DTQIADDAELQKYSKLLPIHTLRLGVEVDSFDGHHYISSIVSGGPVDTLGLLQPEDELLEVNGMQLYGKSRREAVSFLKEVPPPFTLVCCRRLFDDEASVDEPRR

pKd | Binder
below the threshold | B1
below the threshold | B2

target: LIMK2, P53671; assay: holdup assay; parameters: key: below the threshold = too weak to quantify, mostly under pKd 3.1 to 4; settings: plain residues with an end cap or a label only (N-terminal biotin on a linker: ado-ado)
Sequence (P53671 143-248): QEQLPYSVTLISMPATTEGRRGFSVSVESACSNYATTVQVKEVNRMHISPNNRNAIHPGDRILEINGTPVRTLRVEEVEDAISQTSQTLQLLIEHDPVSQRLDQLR

pKd | Binder
below the threshold | B1
below the threshold | B2

target: MAGI2_2, Q86UL8; assay: holdup assay; parameters: key: below the threshold = too weak to quantify, mostly under pKd 3.1 to 4; settings: plain residues with an end cap or a label only (N-terminal biotin on a linker: ado-ado)
Sequence (Q86UL8 410-522): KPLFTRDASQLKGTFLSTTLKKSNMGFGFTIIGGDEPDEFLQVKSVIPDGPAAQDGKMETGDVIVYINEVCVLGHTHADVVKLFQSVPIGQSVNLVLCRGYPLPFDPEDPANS

pKd | Binder
5.44 | B1
5.26 | B2

target: MAGI3_2, Q5TCQ9; assay: holdup assay; parameters: key: below the threshold = too weak to quantify, mostly under pKd 3.1 to 4; settings: plain residues with an end cap or a label only (N-terminal biotin on a linker: ado-ado)
Sequence (Q5TCQ9 398-503): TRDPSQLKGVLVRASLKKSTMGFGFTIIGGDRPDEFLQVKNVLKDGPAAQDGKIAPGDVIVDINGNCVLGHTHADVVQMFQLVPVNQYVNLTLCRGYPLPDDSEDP

pKd | Binder
5.35 | B1
5.72 | B2

target: T6, MPDZ_10, O75970; assay: holdup assay; parameters: key: below the threshold = too weak to quantify, mostly under pKd 3.1 to 4; settings: plain residues with an end cap or a label only (N-terminal biotin on a linker: ado-ado)

pKd | Binder
3.64 | B1
below the threshold | B2

target: T7, MPDZ_12, O75970; assay: holdup assay; parameters: key: below the threshold = too weak to quantify, mostly under pKd 3.1 to 4; settings: plain residues with an end cap or a label only (N-terminal biotin on a linker: ado-ado)

pKd | Binder
3.52 | B1
below the threshold | B2

target: T8, MPDZ_5, O75970; assay: holdup assay; parameters: key: below the threshold = too weak to quantify, mostly under pKd 3.1 to 4; settings: plain residues with an end cap or a label only (N-terminal biotin on a linker: ado-ado)

pKd | Binder
below the threshold | B1
below the threshold | B2

target: T9, MPP7, Q5T2T1; assay: holdup assay; parameters: key: below the threshold = too weak to quantify, mostly under pKd 3.1 to 4; settings: plain residues with an end cap or a label only (N-terminal biotin on a linker: ado-ado)

pKd | Binder
below the threshold | B1
below the threshold | B2

target: PDLIM1, O00151; assay: holdup assay; parameters: key: below the threshold = too weak to quantify, mostly under pKd 3.1 to 4; settings: plain residues with an end cap or a label only (N-terminal biotin on a linker: ado-ado)
Sequence (O00151 1-87): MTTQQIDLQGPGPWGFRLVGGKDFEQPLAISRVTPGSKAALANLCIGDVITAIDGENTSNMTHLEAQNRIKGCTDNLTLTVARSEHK

pKd | Binder
below the threshold | B1
below the threshold | B2

target: T10, PDZD2_2, O15018; assay: holdup assay; parameters: key: below the threshold = too weak to quantify, mostly under pKd 3.1 to 4; settings: plain residues with an end cap or a label only (N-terminal biotin on a linker: ado-ado)

pKd | Binder
4.51 | B1
4.17 | B2

target: T11, PDZRN3_1, Q9UPQ7; assay: holdup assay; parameters: key: below the threshold = too weak to quantify, mostly under pKd 3.1 to 4; settings: plain residues with an end cap or a label only (N-terminal biotin on a linker: ado-ado)

pKd | Binder
below the threshold | B1
3.69 | B2

target: T12, SNTA1, Q13424; assay: holdup assay; parameters: key: below the threshold = too weak to quantify, mostly under pKd 3.1 to 4; settings: plain residues with an end cap or a label only (N-terminal biotin on a linker: ado-ado)

pKd | Binder
below the threshold | B1
5.37 | B2

target: TJP1_2, Q07157; assay: holdup assay; parameters: key: below the threshold = too weak to quantify, mostly under pKd 3.1 to 4; settings: plain residues with an end cap or a label only (N-terminal biotin on a linker: ado-ado)
Sequence (Q07157 181-274): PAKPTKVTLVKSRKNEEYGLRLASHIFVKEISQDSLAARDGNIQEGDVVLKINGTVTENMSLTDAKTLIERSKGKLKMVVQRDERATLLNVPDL

pKd | Binder
below the threshold | B1
below the threshold | B2

target: T13, TX1BP3, O14907; assay: holdup assay; parameters: key: below the threshold = too weak to quantify, mostly under pKd 3.1 to 4; settings: plain residues with an end cap or a label only (N-terminal biotin on a linker: ado-ado)

pKd | Binder
3.72 | B1
4.16 | B2
